Source: the Immune Epitope Database (IEDB)

biological target: HLA-A*02:01; assay: IEDB peptide-MHC binding, purified MHC/competitive/fluorescence; ≥ and ≤ were set here for values at or beyond the usual limits of such assays; conditions: source organism: Homo sapiens

Sequence	IC50
AAAFVNQHL	5.02 µM
AAAFVNQHLC	≥ 100 µM
AAFVNQHLCG	≥ 100 µM
AEDLQVGQV	≥ 100 µM
AEDLQVGQVE	≥ 100 µM
AFVNQHLCG	≥ 100 µM
AFVNQHLCGS	≥ 100 µM
AGSLQPLAL	≥ 100 µM
AGSLQPLALE	≥ 100 µM
ALLALWGPD	≥ 100 µM
ALWGPDPAA	0.88 µM
CCTSICSLY	≥ 100 µM
CCTSICSLYQ	≥ 100 µM
CTSICSLYQ	≥ 100 µM
CTSICSLYQL	≥ 97.7 µM
DLQVGQVEL	≥ 100 µM
DLQVGQVELG	≥ 100 µM
DPAAAFVNQ	≥ 100 µM
DPAAAFVNQH	≥ 100 µM
EAEDLQVGQ	≥ 100 µM
EDLQVGQVE	≥ 100 µM
EDLQVGQVEL	≥ 100 µM
ELGGGPGAG	≥ 100 µM
ELGGGPGAGS	≥ 100 µM

Sequence	IC50
EQCCTSICS	≥ 100 µM
EQCCTSICSL	≥ 100 µM
ERGFFYTPK	≥ 100 µM
GAGSLQPLAL	≥ 100 µM
GGGPGAGSL	≥ 100 µM
GGGPGAGSLQ	≥ 100 µM
GGPGAGSLQ	≥ 100 µM
GGPGAGSLQP	≥ 100 µM
GIVEQCCTS	≥ 100 µM
GPDPAAAFV	≥ 100 µM
GPDPAAAFVN	≥ 100 µM
GPGAGSLQP	≥ 100 µM
GQVELGGGP	≥ 100 µM
GQVELGGGPG	≥ 100 µM
GSLQPLALE	≥ 100 µM
GSLQPLALEG	≥ 100 µM
ICSLYQLEN	≥ 100 µM
ICSLYQLENY	≥ 100 µM
IVEQCCTSI	≥ 100 µM
LALEGSLQK	≥ 100 µM
LALLALWGP	≥ 100 µM
LALWGPDPA	≥ 100 µM
LGGGPGAGS	≥ 100 µM
LGGGPGAGSL	≥ 100 µM

Sequence	IC50
LLALLALWG	≥ 100 µM
LLALLALWGP	29.6 µM
LLALWGPDPA	1.96 µM
LLPLLALLA	1.37 µM
LLPLLALLAL	5.84 µM
LPLLALLAL	11.8 µM
LPLLALLALW	≥ 100 µM
LQPLALEGS	≥ 100 µM
LQPLALEGSL	≥ 100 µM
LQVGQVELG	≥ 100 µM
LQVGQVELGG	≥ 100 µM
LWGPDPAAA	≥ 100 µM
LWGPDPAAAF	≥ 100 µM
LYQLENYCN	≥ 100 µM
PAAAFVNQH	≥ 100 µM
PAAAFVNQHL	≥ 100 µM
PDPAAAFVN	≥ 100 µM
PDPAAAFVNQ	≥ 100 µM
PGAGSLQPL	≥ 100 µM
PGAGSLQPLA	≥ 100 µM
PLALEGSLQ	≥ 100 µM
PLALEGSLQK	≥ 100 µM
PLLALLALW	≥ 100 µM
PLLALLALWG	43.5 µM

Sequence	IC50
QCCTSICSLY	≥ 100 µM
QPLALEGSL	≥ 100 µM
QPLALEGSLQ	≥ 100 µM
QVELGGGPG	≥ 100 µM
QVELGGGPGA	≥ 100 µM
QVGQVELGG	≥ 100 µM
QVGQVELGGG	≥ 100 µM
SICSLYQLE	≥ 100 µM
SICSLYQLEN	≥ 100 µM
SLQPLALEGS	≥ 88 µM
SLYQLENYCN	≥ 100 µM
TSICSLYQL	≥ 100 µM
TSICSLYQLE	≥ 100 µM
VELGGGPGA	≥ 100 µM
VELGGGPGAG	≥ 100 µM
VEQCCTSIC	≥ 100 µM
VEQCCTSICS	≥ 100 µM
VGQVELGGG	≥ 100 µM
VGQVELGGGP	≥ 100 µM
WGPDPAAAF	≥ 100 µM
WGPDPAAAFV	4.46 µM
